From publication PMC526180, “Conservation and Evolution of Cis-Regulatory Systems in Ascomycete Fungi” come the findings set out here.

What all share (details): protein: recombinant; blunt
Series [1] has as its target T1, Sc_Rpn4p (Saccharomyces cerevisiae S288C, UniProt Q03465 2-531).
T1 sequence: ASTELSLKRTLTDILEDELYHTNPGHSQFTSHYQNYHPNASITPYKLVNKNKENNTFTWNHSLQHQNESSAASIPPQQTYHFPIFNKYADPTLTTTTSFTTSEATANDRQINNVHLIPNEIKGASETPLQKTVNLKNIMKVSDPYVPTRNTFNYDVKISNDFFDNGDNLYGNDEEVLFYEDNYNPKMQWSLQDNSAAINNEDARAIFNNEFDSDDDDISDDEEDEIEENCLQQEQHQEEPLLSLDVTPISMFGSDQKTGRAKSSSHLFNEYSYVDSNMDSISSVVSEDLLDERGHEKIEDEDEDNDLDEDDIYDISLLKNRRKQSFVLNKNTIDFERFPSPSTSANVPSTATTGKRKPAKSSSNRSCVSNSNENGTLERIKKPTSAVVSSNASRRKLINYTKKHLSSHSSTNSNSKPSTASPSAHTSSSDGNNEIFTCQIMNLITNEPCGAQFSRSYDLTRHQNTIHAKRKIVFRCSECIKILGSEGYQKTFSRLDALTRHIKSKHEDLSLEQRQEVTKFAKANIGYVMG
In words: competition; SPR; 1x and 5x competitor; best competitor on Sequences A, B, C; Biacore 3000 SA chip; HBS: 10 mM HEPES pH 7.4, 150 mM NaCl, 3 mM EDTA, 0.005% P20; room temperature; 10 ul/min, 90 s injection; competitors preincubated 50 min. In general terms: In SPR one partner is held on a chip, and binding of the other changes the refractive index at the surface.

Series [2] concerns the target T1, Sc_Rpn4p. In words: competition; SPR; 1x and 5x competitor; Biacore 3000 SA chip; HBS: 10 mM HEPES pH 7.4, 150 mM NaCl, 3 mM EDTA, 0.005% P20; room temperature; 10 ul/min, 90 s injection; competitors preincubated 50 min.
Series [3] addresses T1, Sc_Rpn4p. Briefly: SPR; Biacore 3000 SA chip; HBS: 10 mM HEPES pH 7.4, 150 mM NaCl, 3 mM EDTA, 0.005% P20; room temperature; 10 ul/min, 90 s injection; competitors preincubated 50 min.
Series [4] has as its target T1, Sc_Rpn4p. In words: SPR; 50 nM protein; Biacore 3000 SA chip; HBS: 10 mM HEPES pH 7.4, 150 mM NaCl, 3 mM EDTA, 0.005% P20; room temperature; 10 ul/min, 90 s injection; competitors preincubated 50 min.

B1: Sequence D competitor (dsDNA)
DNA 1: CCAGATAATCGGTGGCAAAACGGAAGAAAA
DNA 2: TTTTCTTCCGTTTTGCCACCGATTATCTGG
As to B1, the binding result in series [1] is “binds”.

B2: Sequence G competitor (dsDNA)
DNA 1: CCAGATAATCCTGCATTTGGCGGAAGAAAA
DNA 2: TTTTCTTCCGCCAAATGCAGGATTATCTGG
On to B2, for which, in series [2], the binding result is listed as “no binding”.

B3: Sequence I (dsDNA)
DNA 1: ACTTGTTCCCGCTCGCTGGAGCTCCTCCAACGACACGGGC
DNA 2: GCCCGTGTCGTTGGAGGAGCTCCAGCGAGCGGGAACAAGT
On to B3, for which, in series [3], the binding result is given as “no binding”.

B4: Sequence A (dsDNA)
DNA 1: GCGTGCCAGATAATCGGTGGCAAAACGGAAGAAAAAGTGA
DNA 2: TCACTTTTTCTTCCGTTTTGCCACCGATTATCTGGCACGC
Take B4: the binding result in series [4] is “binds”.
